Changes are numbered by the printed parent chain.
T1: human SEMA4D, full length, on CHO-K1 cells (CHO-K1 hSEMA4D) (human, UniProt Q92854 22-862)
T1 construct: whole, on cells; also called human SEMA4D recombinant cells
T1 sequence (looked up): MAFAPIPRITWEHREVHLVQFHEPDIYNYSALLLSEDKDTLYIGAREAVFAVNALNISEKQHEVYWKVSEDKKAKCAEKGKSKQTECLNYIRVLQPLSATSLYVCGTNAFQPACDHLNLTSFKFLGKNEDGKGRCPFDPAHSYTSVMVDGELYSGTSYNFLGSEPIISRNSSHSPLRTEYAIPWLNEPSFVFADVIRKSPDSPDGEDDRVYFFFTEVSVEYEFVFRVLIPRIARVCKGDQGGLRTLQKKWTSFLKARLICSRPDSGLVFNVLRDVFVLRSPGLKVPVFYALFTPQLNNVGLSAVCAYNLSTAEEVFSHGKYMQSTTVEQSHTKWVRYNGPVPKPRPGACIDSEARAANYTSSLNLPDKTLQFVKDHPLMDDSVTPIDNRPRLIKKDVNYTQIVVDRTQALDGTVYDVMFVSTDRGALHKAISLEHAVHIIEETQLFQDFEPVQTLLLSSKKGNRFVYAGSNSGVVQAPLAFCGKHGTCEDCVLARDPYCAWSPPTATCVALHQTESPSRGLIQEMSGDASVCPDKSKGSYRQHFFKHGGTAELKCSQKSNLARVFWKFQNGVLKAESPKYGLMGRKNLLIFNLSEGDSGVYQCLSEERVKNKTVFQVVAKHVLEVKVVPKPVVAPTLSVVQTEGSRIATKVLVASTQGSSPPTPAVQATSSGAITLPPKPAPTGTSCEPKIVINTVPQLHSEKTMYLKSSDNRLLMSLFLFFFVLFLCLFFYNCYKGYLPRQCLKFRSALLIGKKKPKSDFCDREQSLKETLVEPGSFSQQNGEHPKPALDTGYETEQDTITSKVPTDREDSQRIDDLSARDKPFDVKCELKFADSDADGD

T2: mouse SEMA4D, full length, on CHO-K1 cells (CHO-K1 mSEMA4D) (mouse, UniProt O09126 24-861)
T2 construct: whole, on cells; also called murine SEMA4D recombinant cells
T2 sequence (looked up): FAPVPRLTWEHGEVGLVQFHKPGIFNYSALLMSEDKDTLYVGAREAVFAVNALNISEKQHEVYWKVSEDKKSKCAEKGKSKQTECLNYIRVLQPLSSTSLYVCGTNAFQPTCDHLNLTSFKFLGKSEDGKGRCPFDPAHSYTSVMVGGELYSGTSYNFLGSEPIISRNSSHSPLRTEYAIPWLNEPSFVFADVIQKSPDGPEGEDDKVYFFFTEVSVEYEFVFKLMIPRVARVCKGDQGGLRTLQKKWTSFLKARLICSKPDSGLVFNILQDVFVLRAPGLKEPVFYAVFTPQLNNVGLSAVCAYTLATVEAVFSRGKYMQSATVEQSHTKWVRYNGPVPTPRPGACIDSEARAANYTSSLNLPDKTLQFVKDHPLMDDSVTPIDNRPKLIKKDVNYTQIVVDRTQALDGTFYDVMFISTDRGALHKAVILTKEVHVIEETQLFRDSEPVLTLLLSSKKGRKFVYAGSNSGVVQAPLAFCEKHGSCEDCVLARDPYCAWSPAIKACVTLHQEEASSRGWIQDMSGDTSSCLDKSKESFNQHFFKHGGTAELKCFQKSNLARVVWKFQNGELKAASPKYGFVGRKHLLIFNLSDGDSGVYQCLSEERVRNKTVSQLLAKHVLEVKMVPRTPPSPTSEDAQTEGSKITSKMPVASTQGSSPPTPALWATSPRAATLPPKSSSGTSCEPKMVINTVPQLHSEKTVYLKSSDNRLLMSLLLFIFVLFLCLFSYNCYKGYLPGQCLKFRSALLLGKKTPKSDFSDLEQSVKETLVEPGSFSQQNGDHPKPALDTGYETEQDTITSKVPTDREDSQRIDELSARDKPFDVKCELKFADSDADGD

B1: 32C8F10 (antibody, V domains shown)
VH: EVQLQQSGAELVRPGASVKLSCTASGFNIKDEYIHWVKQRPEQGLEWIGWIDPANGHTEYASRFQAKATITADTSSNTAYLQLSSLTSEDTAVYYCTTGDYDGFAYWGQGTLVTVST
VL: QIVLTQSPAIMSASPGEKVTISCSARSSVSYMYWYQQKPGSSPKPWIYRTSNLASGVPARFSGSGSGTSYSLTISSMEAEDAATYYCQHYHTYPYTFGGGTKLEIK
notes: Mouse monoclonal antibody purified from hybridoma supernatant on protein A
B2: 31C11G2 (antibody, V domains shown)
VH: B1 VH with A105V
VL: B1 VL with S22F
notes: as for B1
B3: 31G10C5 (antibody, V domains shown)
VH: B1 VH with E32D, T58I, R63N, A105T
VL: B1 VL
notes: as for B1
B4: 42B7G2 (antibody, V domains shown)
VH: QVQLQQSGAELARPGASVKLSCKASGYTFTDYGISWVKQRTGQGLEWIGEIYLRNDNSYYNEKFKGKATLTADKSSNTAYMELRSLTSEDSAVYFCARWGDHGNNYEDAMDYWGQGTSVTVSS
VL: DIVLTQSPASLAMSLGKRATISCRASESVSIIGSNLIHWYQQKPGQPPKLLIYHASNLETGVPARFSGSGSRTDFTLTIDPVEEDDVAIYYCLQSRKVPYTFGGGTKLEIK
notes: as for B1
B5: 37F11F9 (antibody, V domains shown)
VH: EVQLQQSGPVLVKPGASVKMSCKASGYTFTDYYMNWVKQSHGKSLEWIGLINPYSGGSTFNQKFKAKATLTVDKSSSSAYMDLNSLTSEDSAVYYCARVGDGYYGVTHGMDYWGQGTSVTVSS
VL: DIVMTPSQKFMSTTVGDRVSITCKASQNVGTAVAWYQQKPGQSPTILIYSASNRYTGVPDRFTGSGSGTDFTLTISNMKSEDLADYFCQQYYIYPFTFAAGTKLELK
notes: as for B1
B6: 37C4F7 (antibody, V domains shown)
VH: EFQLQQSGPEVVKPGASVKISCKASGYSFTDYNMNWMKQSKGKSLEWIGVINPNYGTTTYNQNFKGKATLTVDQSSSTAYMQLNSLTSEDSAVYYCARDMYYVYAYYTMDYWGQGTSVTVSS
VL: DVVMTQTPLSLPVSLGDQASISCRSSQSLVHSNGHTYLHWYLQRPGQSPTLLIYKVSNRFSGVPDRFSGSGSGTDFTLKISRVEAEDLGVYFCSQGTHVPWTFGGGTKLEIK
notes: as for B1
B7: 38H2E3 (antibody, V domains shown)
VH: B6 VH with N52S, N54D, G66D, R98K, Q114H
VL: B6 VL with F67V, W101R
notes: as for B1

molecular target: T1, human SEMA4D, full length, on CHO-K1 …; test: FACS, CHO-K1 hSEMA4D cells; Ab 0.0213 nM
Protocol: (§1) The medium was aspirated, the cells were washed once with PBS buffer (purchased from Invitrogen), and then treated with cell dissociation fluid (TrypLE™ Express Enzyme, purchased from Life technology), and the cells were collected. After the cells counted, the cells were washed once with PBS phosphate buffer, and diluted to 3×10⁶ cells per milliliter, and added to the 96-well FACS reaction plate as 100 μL per well. 2% (w/w) fetal calf serum was added to PBS phosphate buffer as FACS buffer, with which the cells were washed once by centrifugation at 2000 rpm 4° C. 100 μL of diluted and purified leading antibodies was added to each well and the plate was incubated for 1 hour on ice. […] Cells were washed 2 times by centrifugation with FACS buffer. The cells were suspended with 200 μL of FACS buffer, and FACS (FACS Verse, purchased from BD) was used to detect and analyze the results.

MFI	Binder
218	B1
248	B2
225	B3
173	B4
101	B5
76.6	B6
78.7	B7

molecular target: T1, human SEMA4D, full length, on CHO-K1 …; test: FACS, CHO-K1 hSEMA4D cells; Ab 66.7 nM
Protocol: as §1

MFI	Binder
8760	B1
6750	B2
7410	B3
4120	B4
4110	B5
4740	B6
5470	B7

molecular target: T2, mouse SEMA4D, full length, on CHO-K1 …; test: FACS, CHO-K1 mSEMA4D cells; Ab 0.00427 nM
Protocol: (§2) After the cells were counted, they were diluted with PBS to 2×10⁶ cells per milliliter. After washing, 100 μL of diluted and purified leading antibodies was added to each well and the plate was incubated for 1 hour on ice. […] Cells were washed 2 times by centrifugation with FACS buffer. The cells were suspended with 200 μL of FACS buffer, FACS (FACS Verse, purchased from BD) was used to detect and analyze the results.

MFI	Binder
30.2	B1
31.4	B2
29.8	B3
30.3	B4
30.1	B5
30.5	B6
29.9	B7

molecular target: T2, mouse SEMA4D, full length, on CHO-K1 …; test: FACS, CHO-K1 mSEMA4D cells; Ab 13.3 nM
Protocol: as §2

MFI	Binder
30.6	B1
31.3	B2
30.9	B3
30.7	B4
30.1	B5
29.8	B6
31	B7
